To fix the notation:
B1: CyHPPD-02: native Cyanobacteria HPPD, SEQ ID NO: 141 (protein)
chain: MEFDYLHLYVDDYQSAHRCYQRQWGFTCVNKIITDQGITGIYQQGQILLLISASESSLSRYADYLQKHPPGVGEVAWQVANWQKIQHQLSELQIETTPVIHPLTKAEGLTFLLWGDVHHSIYPVRSELNQNKTLHGVGLTTIDHVVLNIAADQFTQASQWYQQVFGWSVQQSFTVNTPHSGLYSEALASANGKVQFNLNCPTNNSSQIQTFLANNHGAGIQHVAFSTTSITRTVAHLRERGVNFLKIPTGYYQQQRNSSYFNYASLDWDTLQCLEILLDDQDNTGERLLLQIFSQPCYGVGTLFWEIIERRHRAKGFGQGNFQALYEAVETLEKQLEVP
modifications: CyHPPD Amino Acid Sequence (Cyanobacteria)
B2: CyHPPDm-F372A-02: Cyanobacteria HPPD mutant F372A, SEQ ID NO: 144 (protein)
chain: B1 chain with F293A
modifications: CyHPPDm-F372A Amino Acid Sequence
B3: N1HPPD-02: native Sphingobium sp. N1 HPPD, SEQ ID NO: 147 (protein)
chain: MAADSENPLGLHGFAFAEFTSPDPAAMARQFEQLGFVPAARRKDRGLTLYRQGRIAFILNAGEGEQASAFRAAHGPSANGMAFNVADAKAAHRHAIQSGATDADTAQSALPGTYAIEGIGDSLLYLVDSDPFADWDEVPGWREASAERGVGLDLLDHLTHNVRRGQMRVWSEFYATLFGFEEQKFFDIKGQATGLFSQAMIAPDHEIRIPLNESQDDNSQIEEFIREYNGEGIQHLALTTPDIYSTVEKLRANGVRLQDTIDTYYDLVDERVPGHGEDLARLRKNRILIDGDVHDEGLLLQIFTETMFGPIFFEIIQRKGNEGFGNGNFQVLYESIELDQIRRGVVTVDA
modifications: N1HPPD Amino Acid Sequence (Sphingobacterium)
B4: AhHPPDm-F372A-02: Arachis hypogaea HPPD mutant F372A, SEQ ID NO: 138 (protein)
chain: MATAYTYAHAVTYCNSQHNPPIIPILSTNQHPPRVTLPSSIPHFISTITTFNLKHFPSHSLHTVMVTQTQQNAPSSSPELGFKLVGFKNFVRTNPKSDRFKVIRFHHVEFWCTDATNTASRFSWGLGMPIVAKSDLSTGNAVHASYLLRSGDLNFLFSAPYSASIAGDGASASFPSFSASDCHSFAAKHGLAVRAVAIEVEDASAAFSASVANGAKPVSPAVLLDNSVGFAEVHLYGDVVLRYISYSAPTRESNLNPTLRFLPGFEAVEADSSFPELDYGIRRLDHAVGNVPELAPAVNYLKKFTGFHEFAEFTAEDVGTSESGLNSVVLASNDEMVLLPLNEPVYGTKRKSQIETYLEHNEGAGLQHLALVSEDIFRTLREMRKRSTIGGFQFMPSPPPTYYRNLKKRAGDVLSDEQIKECEELGILVDRDDQGTLLQIATKPVGDRPTIFIEIIQRIGCMLKDEEGKVYQKGGCGGFGKGNFSELFKSIEEYEKTLESRRTA
modifications: AhHPPDm-F372A Amino Acid Sequence

Consider 4 molecules from patent US20230212587A1, “Mutant Hydroxyphenylpyruvate Dioxygenase Polypeptide, Encoding Gene Thereof and Use Therefor” (Beijing Dabeinong Biotechnology Co., Ltd., priority 2019, published 2023).

Numbering of substitutions follows the chain as printed. In names and notes the source's numbering stands.

In the first assay the test system is Arabidopsis thaliana T1 plants. The assay is described as follows: Topramezone tolerance of transgenic Arabidopsis thaliana T1 plants (pesticide damage grade by bleached leaf area, score, resistance evaluation). The note with it: HPPDs from different species; number of plants (of 16) in this grade; topramezone 25 g ai/ha (1x), 7 DAT. Format: in vivo. In a few lines:
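Herbicide tolerance was judged per plant on a bleaching scale (grade 0 no bleaching to grade 3 fully bleached) 7 DAT. Topramezone doses were 0, 25, 50 and 100 g ai/ha on 18-day-old T1 and wild-type plants.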
As to B1, the “Classification and statistics of pesticide damage grade Grade 0” value is on record as 0; the “Classification and statistics of pesticide damage grade Grade 1” value turned out to be 0; the “Classification and statistics of pesticide damage grade Grade 2” value is given as 0; the “Classification and statistics of pesticide damage grade Grade 3” value is 0.
In the case of B2, the “Classification and statistics of pesticide damage grade Grade 0” value stood at 1; the “Classification and statistics of pesticide damage grade Grade 1” value came out at 14; the “Classification and statistics of pesticide damage grade Grade 2” value was 1; the “Classification and statistics of pesticide damage grade Grade 3” value is given as 0.
With B3, the “Classification and statistics of pesticide damage grade Grade 0” value came to 2; the “Classification and statistics of pesticide damage grade Grade 1” value worked out at 12; the “Classification and statistics of pesticide damage grade Grade 2” value is reported as 1; the “Classification and statistics of pesticide damage grade Grade 3” value was determined as 1.
For the molecule B4, the “Classification and statistics of pesticide damage grade Grade 0” value was found to be 2; the “Classification and statistics of pesticide damage grade Grade 1” value was determined as 12; the “Classification and statistics of pesticide damage grade Grade 2” value is listed as 2; the “Classification and statistics of pesticide damage grade Grade 3” value is reported as 0.

Still in this assay, the particulars now being: HPPDs from different species; number of plants (of 16) in this grade; topramezone 100 g ai/ha (4x), 7 DAT.
With B1, the “Classification and statistics of pesticide damage grade Grade 0” value amounted to 0; the “Classification and statistics of pesticide damage grade Grade 1” value is 0; the “Classification and statistics of pesticide damage grade Grade 2” value is on record as 0; the “Classification and statistics of pesticide damage grade Grade 3” value is listed as 0.
Take B2: the “Classification and statistics of pesticide damage grade Grade 0” value worked out at 0; the “Classification and statistics of pesticide damage grade Grade 1” value worked out at 1; the “Classification and statistics of pesticide damage grade Grade 2” value came to 15; the “Classification and statistics of pesticide damage grade Grade 3” value was found to be 0.
Take B3: the “Classification and statistics of pesticide damage grade Grade 0” value worked out at 0; the “Classification and statistics of pesticide damage grade Grade 1” value was found to be 4; the “Classification and statistics of pesticide damage grade Grade 2” value is listed as 8; the “Classification and statistics of pesticide damage grade Grade 3” value came out at 4.
For B4, the “Classification and statistics of pesticide damage grade Grade 0” value stood at 0; the “Classification and statistics of pesticide damage grade Grade 1” value is 0; the “Classification and statistics of pesticide damage grade Grade 2” value came out at 10; the “Classification and statistics of pesticide damage grade Grade 3” value was found to be 6.

The same assay, now with this note: HPPDs from different species; score for pesticide damage 0-100; topramezone 25 g ai/ha (1x), 7 DAT.
In the case of B1, the Scores was determined as 16.
Still for that read-out and setting: as for B2, the figure is 33.
The same measure, in the same setting: as for B3, the figure is 35.
Same read-out and setting: as for B4, the figure is 33.

Still in this assay, the particulars now being: HPPDs from different species; score for pesticide damage 0-100; topramezone 100 g ai/ha (4x), 7 DAT.
Molecule B1 yielded a Scores of 16.
The same measure, in the same setting: as for B2, the figure is 65.
On the same count and under the same terms, then B3, with 67; and B4, with 79.

The same assay, now with this note: HPPDs from different species; topramezone 25 g ai/ha (1x), 7 DAT.
Consider B1, for which the Resistance evaluation entry was “non-resistant (non-resistant plants (scores 68-100))”.
Regarding B2, the Resistance evaluation result was “moderately resistant (moderately resistant plants (scores 16-33))”.
For the molecule B3, the Resistance evaluation result is recorded as “poorly resistant (poorly resistant plants (scores 34-67))”.
The same measure, in the same setting: then B4, with “moderately resistant (moderately resistant plants (scores 16-33))”.

The same assay, now with this note: HPPDs from different species; topramezone 100 g ai/ha (4x), 7 DAT.
B1: the Resistance evaluation entry was “non-resistant (non-resistant plants (scores 68-100))”.
Still for that read-out and setting: as for B2, the entry is “poorly resistant (poorly resistant plants (scores 34-67))”; as for B3, “poorly resistant (poorly resistant plants (scores 34-67))”.
Still for that read-out and setting: as for B4, the entry is “non-resistant (non-resistant plants (scores 68-100))”.
